According to paper PMC3115021, “Dynamics of Cdk1 Substrate Specificity during the Cell Cycle” (Molecular Cell, 2011):

Assays:
Experiment in all cases: Quantitative phosphorylation assay of T33-Sic1ΔC constructs and recombinant substrates
Format in all cases: biochemical
Details in all cases: Table S2; purified protein substrate; relative values, not divided by [S]
Clb2-Cdk1 = target: T1, Clb2-Cdk1 (Saccharomyces cerevisiae, UniProt P00546+P24869)
T1 construct: We purified the four cyclin-Cdk1 complexes from yeast; made in house; host or cells: S. cerevisiae strain DOM0077 (gal-CLB2-TAP, sic1 deleted); Cks1 from bacteria
Experimental: (§1) For the quantitative phosphorylation assays of T33-Sic1ΔC constructs and recombinant substrates, substrate concentrations were kept in the range of 0.5–2 μM (in the linear [S] versus v0 range, several-fold below the estimated KM value), and initial velocity conditions were defined as an initial substrate turnover of up to 10% of the total turnover. For the steady-state peptide kinetics of the Histone peptide PKTPKKAKKL, a similar assay composition was used as for protein substrates, and phosphocellulose paper was used for the quantification of the phosphorylated substrate. […]
(§2) similar substrate specificity as the Cln2-Cdk1 version purified using a TAP-tag. N-terminally 6His-tagged recombinant T33-Sic1ΔC constructs and substrates were cloned into the pET28a vector and purified by standard cobalt affinity chromatography and elution with 200 mM imidazole. 6His-Fin1 was purified as described previously (Woodbury and Morgan, 2007). Substrates cloned into the pGEX-4T-1 were purified on glutathione agarose columns using 5 mM reduced glutathione for elution. Cks1 was purified as described previously (Reynard et al., 2000). The optimal working concentration for purified Cks1 was taken as 500 nM based on optimization performed for cyclin-Cdk1 preparations and T33-Sic1ΔC as a substrate.
(§3) For the quantitative phosphorylation assays of T33-Sic1ΔC constructs and recombinant substrates, substrate concentrations were kept in the range of 0.5-2 μM (in the linear [S] vs v0 range, several-fold below the estimated KM value), and the initial velocity conditions were defined as an initial substrate turnover ranging up to 10% of the total turnover. The latter was estimated by a long-term incubation with excess amounts of cyclin-Cdk1 and 32P-γ-ATP in the standard reaction mixture given below. About 1-10 nM of purified kinase complex was used, reaction aliquots were taken at two or more time points, and the reaction was stopped by SDS-PAGE sample buffer. The relative kcat/KM values for the substrates were calculated as the ratio of v0/[S], which was determined from at least two independent experiments. The basal composition of the assay mixture contained 50 mM Hepes, pH 7.4, 100 mM NaCl, 0.1% NP-40, 20 mM imidazole, 0.1 mg/ml 2HA peptide, 2% glycerol, 2 mM EGTA, 0.2 mg/ml BSA, […], and 500 μM ATP (with added 32P-γ-ATP (Perkin Elmer)).
(§4) About 1-10 nM of purified kinase complex was used, reaction aliquots were taken at two or more time points, and the reaction was stopped by SDS-PAGE sample buffer. For the steady-state peptide kinetics of the Histone peptide PKTPKKAKKL, a similar assay composition was used as for protein substrates and the standard phosphocellulose method was applied for the quantification of the phosphorylated substrate (Loog and Morgan, 2005). Synthetic peptides as competitor agents were used in 4 mM final concentrations. […]

Clb3-Cdk1 = target: T2, Clb3-Cdk1 (Saccharomyces cerevisiae, UniProt P00546+P24870)
T2 construct: We purified the four cyclin-Cdk1 complexes from yeast; made in house; host or cells: S. cerevisiae strain DOM0957 (gal-CLB3-TAP, sic1 deleted); Cks1 from bacteria
Experimental: as §1, §2, §3, §4

Clb5-Cdk1 = target: T3, Clb5-Cdk1 (Saccharomyces cerevisiae, UniProt P00546+P30283)
T3 construct: We purified the four cyclin-Cdk1 complexes from yeast; made in house; host or cells: S. cerevisiae strain DOM0076 (gal-CLB5-TAP, sic1 deleted); Cks1 from bacteria
Experimental: as §1, §2, §3, §4

Cln2-Cdk1 = target: T4, Cln2-Cdk1 (Saccharomyces cerevisiae, UniProt P00546+P20438)
T4 construct: We purified the four cyclin-Cdk1 complexes from yeast; made in house; host or cells: S. cerevisiae strain DMY305 (galactose-induced); Cks1 from bacteria
Experimental: as §1, §2, §3, §4

Clb2hpm-Cdk1 = target: T5, Clb2hpm-Cdk1 (Saccharomyces cerevisiae, UniProt P00546)
T5 construct: made in house; host or cells: S. cerevisiae strain DOM0964 (gal-CLB2hpm-TAP, sic1 deleted); Cks1 from bacteria
Experimental: (§5) For the quantitative phosphorylation assays of T33-Sic1ΔC constructs and recombinant substrates, substrate concentrations were kept in the range of 0.5–2 μM (in the linear [S] versus v0 range, several-fold below the estimated KM value), and initial velocity conditions were defined as an initial substrate turnover of up to 10% of the total turnover. For the steady-state peptide kinetics of the Histone peptide PKTPKKAKKL, a similar assay composition was used as for protein substrates, and phosphocellulose paper was used for the quantification of the phosphorylated substrate.
(§6) Supplemental Experimental Procedures
(§7) Plasmid constructs and yeast strains
(§8) For tandem affinity purification (TAP) of cyclin-Cdk1 complexes, the cyclin genes were cloned into the 2 micron vector pRSAB1234 containing a GAL1 promoter and the C-terminal TAP-tag. To purify different 6His-T33-Sic1ΔC forms for kinase assays, the C-terminally truncated fragment of Sic1 (with a stop codon inserted after amino acid 215) was cloned into the NheI/BamHI site of the bacterial expression vector pET28a (Invitrogen). Mutagenesis of cyclins or substrates was performed using single-stranded pRSAB1234 or pET28a vector constructs as templates. The triple mutants in the hydrophobic patch (hpm) of Clb5 and Clb2 were described previously (Loog and Morgan, 2005), and the hpm of Clb3 (Phe-201, Leu-205 and Trp-208 mutated to alanines) was designed according to sequence homology with other B-type cyclins. In T33-Sic1ΔC constructs, the other Cdk sites bearing the consensus motif S/T-P were mutated to Ala-Ala in order to prevent any possible (pseudo)substrate competition. The other Cdk substrates were cloned as full-length forms into bacterial expression vectors pET28a or pGEX-4T-1. Cdh1 was purified using the baculovirus system and was a kind gift from Monica Rodrigo-Brenni (UCSF). […]
The […]
(§9) pRSAB1234 analogously to the cyclin-Cdk1 complexes. For C-terminal tagging of cyclin genes in their chromosomal loci, the Pringle method was applied (Longtine et al., 1998). Lists of plasmid […]
(§10) The TAP method was applied for purification of cyclin-Cdk1 complexes and Swe1 as described previously for Clb5-TAP-Cdk1 and Clb2-TAP-Cdk1 (Puig et al., 2001; Ubersax et al., 2003). […]
as §2, with “tagged” for “similar substrate specificity as the Cln2-Cdk1 version purified using a TAP-tag. N-terminally 6His-tagged”
as §3
(§11) About 1-10 nM of purified kinase complex was used, reaction aliquots were taken at two or more […]

Clb3hpm-Cdk1 = target: T6, Clb3hpm-Cdk1 (Saccharomyces cerevisiae, UniProt P00546+P24870)
T6 construct: made in house; host or cells: S. cerevisiae strain MK0168 (gal-CLB3hpm-TAP, sic1 deleted); Cks1 from bacteria
Experimental: as §5, §6, §7, §8
The […]
as §9, §10
as §2, with “tagged” for “similar substrate specificity as the Cln2-Cdk1 version purified using a TAP-tag. N-terminally 6His-tagged”
as §3, §11

Clb5hpm-Cdk1 = target: T7, Clb5hpm-Cdk1 (Saccharomyces cerevisiae, UniProt P00546)
T7 construct: made in house; host or cells: S. cerevisiae strain DOM0963 (gal-CLB5hpm-TAP, sic1 deleted); Cks1 from bacteria
Experimental: as §5, §6, §7, §8
The […]
as §9, §10
as §2, with “tagged” for “similar substrate specificity as the Cln2-Cdk1 version purified using a TAP-tag. N-terminally 6His-tagged”
as §3, §11

T1 sequence (P00546 2-298 limits assumed): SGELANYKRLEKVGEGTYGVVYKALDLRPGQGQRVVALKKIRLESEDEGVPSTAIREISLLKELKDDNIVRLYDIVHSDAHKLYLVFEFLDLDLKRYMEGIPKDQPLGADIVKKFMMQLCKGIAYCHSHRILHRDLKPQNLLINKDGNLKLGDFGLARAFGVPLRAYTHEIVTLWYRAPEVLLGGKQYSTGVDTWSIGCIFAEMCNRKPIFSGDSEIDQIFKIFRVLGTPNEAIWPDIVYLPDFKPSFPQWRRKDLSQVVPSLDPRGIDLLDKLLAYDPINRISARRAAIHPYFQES
T1 sequence (P24869 2-491 partner limits assumed): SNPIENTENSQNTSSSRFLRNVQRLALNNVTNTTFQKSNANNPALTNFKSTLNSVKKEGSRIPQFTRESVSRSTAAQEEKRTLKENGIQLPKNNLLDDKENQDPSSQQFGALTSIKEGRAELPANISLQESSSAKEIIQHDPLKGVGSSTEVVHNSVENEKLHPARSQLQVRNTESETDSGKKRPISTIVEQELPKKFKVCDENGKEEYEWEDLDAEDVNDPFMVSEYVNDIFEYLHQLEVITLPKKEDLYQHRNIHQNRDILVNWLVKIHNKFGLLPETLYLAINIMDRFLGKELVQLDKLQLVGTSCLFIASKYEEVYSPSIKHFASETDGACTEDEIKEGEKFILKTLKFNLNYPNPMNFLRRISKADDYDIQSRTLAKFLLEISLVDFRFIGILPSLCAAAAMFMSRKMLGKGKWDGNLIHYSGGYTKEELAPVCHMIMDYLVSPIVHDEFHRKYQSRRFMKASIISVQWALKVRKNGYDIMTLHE
T1 sequence (P20486 whole entry partner): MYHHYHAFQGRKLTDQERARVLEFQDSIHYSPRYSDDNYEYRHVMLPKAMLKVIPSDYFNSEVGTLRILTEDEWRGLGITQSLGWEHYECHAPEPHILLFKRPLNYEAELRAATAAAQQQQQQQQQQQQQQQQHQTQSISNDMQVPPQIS
T5 sequence (P00546 2-298 limits assumed): as the sequence (P00546 2-298 limits assumed) above
T2 sequence (P00546 2-298 limits assumed): as above
T2 sequence (P24870 whole entry partner): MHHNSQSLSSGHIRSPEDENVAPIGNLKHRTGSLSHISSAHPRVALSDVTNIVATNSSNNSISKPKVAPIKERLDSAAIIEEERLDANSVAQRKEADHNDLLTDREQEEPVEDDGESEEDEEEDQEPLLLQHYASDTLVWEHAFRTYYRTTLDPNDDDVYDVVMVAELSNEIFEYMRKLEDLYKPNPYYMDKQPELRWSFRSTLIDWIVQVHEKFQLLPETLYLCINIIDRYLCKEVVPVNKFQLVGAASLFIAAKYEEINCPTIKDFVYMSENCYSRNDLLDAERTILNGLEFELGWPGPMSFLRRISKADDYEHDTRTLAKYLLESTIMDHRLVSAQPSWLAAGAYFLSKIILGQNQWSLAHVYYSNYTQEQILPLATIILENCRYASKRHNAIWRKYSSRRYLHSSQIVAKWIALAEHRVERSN
T2 sequence (P20486 whole entry partner): as the sequence (P20486 whole entry partner) above
T3 sequence (P00546 2-298 limits assumed): as the sequence (P00546 2-298 limits assumed) above
T3 sequence (P30283 whole entry partner): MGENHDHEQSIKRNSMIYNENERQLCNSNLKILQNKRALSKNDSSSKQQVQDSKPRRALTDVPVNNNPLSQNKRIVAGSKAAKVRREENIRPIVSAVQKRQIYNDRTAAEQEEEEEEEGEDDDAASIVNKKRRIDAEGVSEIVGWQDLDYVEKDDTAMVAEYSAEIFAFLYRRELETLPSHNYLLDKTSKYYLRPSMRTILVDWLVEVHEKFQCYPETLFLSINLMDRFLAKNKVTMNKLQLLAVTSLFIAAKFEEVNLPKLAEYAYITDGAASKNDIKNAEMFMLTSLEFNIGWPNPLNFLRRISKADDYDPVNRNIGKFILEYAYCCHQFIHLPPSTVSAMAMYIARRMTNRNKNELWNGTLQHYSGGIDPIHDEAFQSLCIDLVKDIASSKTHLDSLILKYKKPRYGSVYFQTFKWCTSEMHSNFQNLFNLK
T3 sequence (P20486 whole entry partner): as the sequence (P20486 whole entry partner) above
T7 sequence (P00546 2-298 limits assumed): as the sequence (P00546 2-298 limits assumed) above
T4 sequence (P00546 2-298 limits assumed): as above
T4 sequence (P20438 whole entry partner): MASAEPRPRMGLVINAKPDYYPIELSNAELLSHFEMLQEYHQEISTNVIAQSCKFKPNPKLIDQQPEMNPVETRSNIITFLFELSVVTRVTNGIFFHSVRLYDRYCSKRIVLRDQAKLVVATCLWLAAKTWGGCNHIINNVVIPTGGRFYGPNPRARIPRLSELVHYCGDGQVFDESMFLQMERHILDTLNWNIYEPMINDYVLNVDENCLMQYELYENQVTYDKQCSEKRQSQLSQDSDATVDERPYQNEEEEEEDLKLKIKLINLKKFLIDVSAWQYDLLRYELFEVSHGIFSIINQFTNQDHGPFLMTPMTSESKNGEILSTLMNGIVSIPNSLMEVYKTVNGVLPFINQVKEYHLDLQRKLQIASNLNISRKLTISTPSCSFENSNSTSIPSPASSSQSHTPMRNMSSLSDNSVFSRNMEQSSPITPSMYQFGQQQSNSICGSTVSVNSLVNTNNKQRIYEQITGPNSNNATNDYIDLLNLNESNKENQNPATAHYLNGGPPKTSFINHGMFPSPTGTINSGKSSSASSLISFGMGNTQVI
T4 sequence (P20486 whole entry partner): as the sequence (P20486 whole entry partner) above

| Molecule | kcat/KM, Clb2 (Clb2-Cdk1) [relative units] | kcat/KM, Clb3 (Clb3-Cdk1) [relative units] | kcat/KM, Clb5 (Clb5-Cdk1) [relative units] | kcat/KM, Cln2 (Cln2-Cdk1) [relative units] | kcat/KM, Clb2hpm (Clb2hpm-Cdk1) [relative units] | kcat/KM, Clb3hpm (Clb3hpm-Cdk1) [relative units] | kcat/KM, Clb5hpm (Clb5hpm-Cdk1) [relative units] |
| --- | --- | --- | --- | --- | --- | --- | --- |
| ASH1: transcription factor, purified protein tested as Cdk1 substrate | 0.462 | 0.697 | 0.111 | 0.422 | 0.389 | 0.134 | 0.052 |
| Histone H1 [reference compound] | 4.900 | 2.237 | 0.605 | 1.394 | 4.287 | 1.957 | 0.427 |
| BOP3: purified yeast protein tested as Cdk1 substrate (protein, UniProt P53958 1-396, looked up) Protein BOP3: MSTFNSYSQPKESNDNSHNNVNKSKSLLDIIFGTNVSEWAFSENALMKAMDLKIEQEKTKQQYYKLENLNRSIELFKLASSSGLPINQIHKLFNTDHGVPASSPMKAGGNQPHNNTEGTQSSENLPRLNGSMKSLKPLNMNTVSPTPMSRQPSPYKFPASSSTGGISHSTVTNVQRRANSPARIGASAVAALNDNISIKEEDVARRIPSGTKSQESPLNKKPTSLHSRNLSLPIGKFTNPNIPSTMTSILSFNRDQQQPLSQPLPPPPQQQQDLHTHNLHTIPRKPGMVQKKHRRARSTSSFGVIDLSIIDEAKEKQVQRSPSPIHSNVSVALTSHDKPIESNMKEQPNMLQSVREGRQVHDDLDDRTCSESSSRNESPVRTITKDNSVGKILNST | 0.109 | 0.101 | 0.027 | 0.521 | – | – | – |
| FIR1: purified yeast protein tested as Cdk1 substrate (protein, UniProt P40020 1-876, looked up) Factor interacting with REF2: MSLPVTPVKSKVCSTLSIQHEMDHDQCRDVLCPRENLLAINRTNNIESVAIPRQRSSKNKKPHEHTQSQVRFSIPDPNEISQDSPLKIVFPKSGNETERRMSTSSLLMNSHGHLVDMHSKILVDVPKEVWKFHHNRRKKCESRHRKTRSDVRSNTSSSGKEPNHSRSKSLQSIIVDTMNTYRATEVETSINENTSNISQVSPLNLSFDRPPPLTPEKNLYLTPESPLNRYHLPVPLEISLPPYLSPQNKDKKRSSLVYDGDGYSQFQEGNTSSSTESSLEQPSSSYSDEDDSIPYAHHDVSFELNNADADKLLGIDENANVNLKIQRRNLKNPQHIKSKTDRECEEKNTEKNVSLKILSTPNKLIDIPDLEHMKSPPSTGLNGTLKFFQQFEPSEEPTSPTRQVNPESLDKLDMSFKFPSSTTNNNVDKVHENRNSGDTNNEDFLKVDTSPVNQSFESRRQMLIDLQKSPTNNNPRIHKHRRSRSVHNIDDISLNFEATSTPPAPTSAPSIPVEHSNPCTSIEIPKRSPLRFTSSPKTSDIPPEAQSPKNGSFLQEISVPSIQIIPDESISHTREPSPSLIECPEDENEAFSTEVADHSIAIISETKSVPSIEPFKPLSSFNSFGQEIQNKEPTPLNQTPTDLIGKQRNCVNPHSIPFSVLSSNSQSSQSGSSKSSYNSEFSSNTAITDTTSQPSVTINRSTLEHNFIEEKRSIKNLGHGPPSQKNNYSFPRNKNTPSNRHDLDFNTIYEKRDGKMVEVILLDEDEDVGLKNNDISRTRVCHAQKAKNEQQKKRLSHCNEILGMCDKTADDAKRIIYQLVNEKHKFSEKGQQTKPKKSRVLPPLPFPLYDEKGNSLIPNKYQSSIHNDIPSHRKLK | 0.836 | 0.223 | 0.032 | 0.042 | 0.111 | 0.017 | 0.008 |
